Assay results as given in paper PMC3087504.

Columns and labels:
[1] = tested on: T1, MBP-TAp63γ (Mus musculus), O88898-5; assay: fluorescence anisotropy; conditions: 10 mM potassium phosphate pH 7.6, 200 mM NaCl, room temperature, 30 min, 15 nM p21 DNA (300 nM for controls), protein 0.1-15 µM monomer
T1 sequence: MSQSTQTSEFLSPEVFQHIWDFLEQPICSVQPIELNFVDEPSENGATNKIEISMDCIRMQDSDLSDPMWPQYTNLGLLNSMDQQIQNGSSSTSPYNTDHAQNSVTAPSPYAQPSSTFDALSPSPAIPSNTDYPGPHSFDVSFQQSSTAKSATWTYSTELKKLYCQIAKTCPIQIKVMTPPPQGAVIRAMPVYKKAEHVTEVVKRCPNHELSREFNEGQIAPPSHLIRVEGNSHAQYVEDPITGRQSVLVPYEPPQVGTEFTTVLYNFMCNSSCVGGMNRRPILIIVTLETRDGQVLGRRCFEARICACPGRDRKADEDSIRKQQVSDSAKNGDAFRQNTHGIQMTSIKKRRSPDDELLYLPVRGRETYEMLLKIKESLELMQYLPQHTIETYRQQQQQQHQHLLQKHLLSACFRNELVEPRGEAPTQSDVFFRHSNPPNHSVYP

[2] = target: T2, MBP-TAp63αFTL (Mus musculus) (UniProt O88898); assay: fluorescence anisotropy; conditions: 10 mM potassium phosphate pH 7.6, 200 mM NaCl, room temperature, 30 min, 15 nM p21 DNA (300 nM for controls), protein 0.1-15 µM monomer
T2 sequence: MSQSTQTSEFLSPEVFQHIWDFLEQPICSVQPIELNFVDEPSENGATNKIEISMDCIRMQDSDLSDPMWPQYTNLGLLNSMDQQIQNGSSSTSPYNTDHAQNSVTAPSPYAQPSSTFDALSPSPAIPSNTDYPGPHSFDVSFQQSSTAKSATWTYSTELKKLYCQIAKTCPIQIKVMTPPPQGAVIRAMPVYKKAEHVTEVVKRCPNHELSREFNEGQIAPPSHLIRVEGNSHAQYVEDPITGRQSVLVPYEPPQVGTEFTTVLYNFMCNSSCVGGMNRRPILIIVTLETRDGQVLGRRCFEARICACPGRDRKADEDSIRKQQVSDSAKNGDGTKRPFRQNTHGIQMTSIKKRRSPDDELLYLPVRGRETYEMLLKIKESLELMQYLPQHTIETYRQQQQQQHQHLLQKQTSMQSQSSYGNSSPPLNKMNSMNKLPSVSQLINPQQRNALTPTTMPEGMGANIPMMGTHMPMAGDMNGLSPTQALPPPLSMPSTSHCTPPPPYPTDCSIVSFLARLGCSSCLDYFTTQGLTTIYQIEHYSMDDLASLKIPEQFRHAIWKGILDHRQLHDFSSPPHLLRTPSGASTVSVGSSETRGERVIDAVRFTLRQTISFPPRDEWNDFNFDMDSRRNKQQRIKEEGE

[3] = target: His-MBP-ΔNp63α^PPR (mouse); assay: SEC; purified proteins from E. coli, 3–15 μM, Superose 6 10/300 GL, 16°C, 10 mM potassium phosphate pH 7.6, 200 mM NaCl; column calibrated with globular standards
MBP-TAp63α (mouse) [4] = assay: native MS; LILBID-MS, ~10 μM protein dialyzed against 10 mM potassium phosphate pH 7.6 without NaCl
MBP-TAp63α (mouse) [5] = assay: AUC; sedimentation equilibrium, 7000 and 9000 rpm, 1–8 μM monomer, 4°C, 20 mM potassium phosphate pH 7.5, 200 mM NaCl, 2 mM dithiothreitol
MBP-TAp63α (mouse) [6] = assay: SEC-MALS; Superdex 200 5/150 GL, room temperature, 80 μl of purified protein of ~1 mg/ml, 0.3 ml/min
MBP-TAp63α (mouse) [7] = assay: AUC; sedimentation velocity, 45,000 rpm, 4 μM protein, 4°C, 20 mM potassium phosphate pH 7.5, 200 mM NaCl, 2 mM dithiothreitol
MBP-TAp63α (mouse) [8] = assay: SEC; purified proteins from E. coli, 3–15 μM, Superose 6 10/300 GL, 16°C, 10 mM potassium phosphate pH 7.6, 200 mM NaCl; column calibrated with globular standards
[9] = target: TAp63α (murine, N-terminal His6-tag, from pBH4) (mouse); assay: SEC-MALS; Superdex 200 5/150 GL, room temperature, 80 μl of purified protein of ~1 mg/ml, 0.3 ml/min
[10] = target: TAp63α (murine, N-terminal His6-tag, from pBH4) (mouse); assay: SEC; purified proteins from E. coli, 3–15 μM, Superose 6 10/300 GL, 16°C, 10 mM potassium phosphate pH 7.6, 200 mM NaCl; column calibrated with globular standards
p63 (Homo sapiens) = p63 (Homo sapiens) (UniProt Q9H3D4); conditions: cited from earlier work
[11] = second binding site of two-site fit, suggested unspecific
[12] = two-site fit, first site, monomer concentration

Chain of p63 (Q9H3D4 whole entry): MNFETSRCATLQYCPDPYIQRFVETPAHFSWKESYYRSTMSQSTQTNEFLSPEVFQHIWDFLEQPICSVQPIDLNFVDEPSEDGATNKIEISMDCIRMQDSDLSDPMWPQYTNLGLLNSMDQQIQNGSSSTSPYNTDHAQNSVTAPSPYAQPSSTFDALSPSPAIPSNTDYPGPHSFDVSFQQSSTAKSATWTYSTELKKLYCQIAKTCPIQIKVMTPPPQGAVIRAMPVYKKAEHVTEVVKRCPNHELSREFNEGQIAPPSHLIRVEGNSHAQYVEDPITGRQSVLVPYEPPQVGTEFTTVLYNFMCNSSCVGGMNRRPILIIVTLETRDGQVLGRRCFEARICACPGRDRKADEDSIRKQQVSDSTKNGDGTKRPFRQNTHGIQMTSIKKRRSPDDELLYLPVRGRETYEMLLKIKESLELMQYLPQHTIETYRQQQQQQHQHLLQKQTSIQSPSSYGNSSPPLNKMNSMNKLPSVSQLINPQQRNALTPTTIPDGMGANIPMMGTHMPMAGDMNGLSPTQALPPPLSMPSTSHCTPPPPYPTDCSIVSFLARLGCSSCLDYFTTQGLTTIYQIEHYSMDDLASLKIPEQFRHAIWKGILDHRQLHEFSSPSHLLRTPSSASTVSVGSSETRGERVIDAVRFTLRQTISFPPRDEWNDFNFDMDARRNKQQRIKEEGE

Q: What does the source list for “GGCAGGAACATGTCCCAACATGTTGAGCCG (double strand) [p21 promoter response element]”?
A: Kd [1, 11]: 20800 nM; Kd [1, 12]: 340 nM; Kd [2, 11]: 47100 nM; Kd [2, 12]: 380 nM

Q: With His-MBP-ΔNp63α^PPR (natural protein) as the substance, how does the stoichiometry N [3] read?
A: 4

Q: With MBP-TAp63α (natural protein) as the substance, how does the stoichiometry N (MBP-TAp63α (mouse) [4]) read?
A: 2

Q: What about the stoichiometry N (MBP-TAp63α (mouse) [5]) of the same substance?
A: 2

Q: What about the stoichiometry N (MBP-TAp63α (mouse) [6]) of the same substance?
A: 2

Q: What about the stoichiometry N (MBP-TAp63α (mouse) [7]) of the same substance?
A: 2

Q: And the stoichiometry N (MBP-TAp63α (mouse) [8])?
A: 2

Q: Which stoichiometry N [9] does the source give for “TAp63α (murine, N-terminal His6-tag, from pBH4) (natural protein)” here?
A: 2

Q: What about the stoichiometry N [10] of the same substance?
A: 2

Q: With p63 (from UniProt Q9H3D4) as the substance, how does the Kd (p63 (Homo sapiens)) read?
A: 12 nM
